B1: TPR t1 (parent)
chain: GACCAAUCUGCCCUCAGAGCUCGAGAACAUCUUCGGAUGCAGAGGAGGCAGGCUUCGGUGGCGCGAUAGCGCCAACGUCCUCAACCUCCAAUGCAUCCCACCACAUGAUGAUGCCUGAAGAGCCUUGGUUUUUUG

Variants of: B1
Test: polymerase ribozyme fitness, log enrichment relative to wild type (log ratio); higher = more active; in vitro selection for triplet polymerase activity
In short: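 Mutant libraries were PCR-built and transcribed for each subunit of a heterodimeric triplet polymerase ribozyme and selected for one round in triplicate at −7 °C, frozen, before gel excision of extended constructs and streptavidin-bead capture. Input and output libraries were Illumina-sequenced, keeping genotypes with ≥10 input reads and ≥1 read per output. Fitness is a logarithmic ratio of genotype to wild-type enrichment, in base 2, using inverse-variance-weighted replicate averages.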

Variant	polymerase ribozyme fitness (log ratio)
C56A G117C	-3.44
G61C C124A	-0.457
C12G A43G C79A U112A G117C	-4.33
C12G C56A C82A	-0.693
G45U A95U	-1.69
G36A G71A U87C C123G	0.907
C56A C79U U109A C123G	-6.51
A68U C124G	-4.93
A5G A74G A118C	-3.85
G10U U92G	-3.71
C49A U78G U87G A121G G128U	-0.14
C15U A43G G57U C85A G93U G120C	-4.37
C70U G110U U112G	-6.05
C56U C94A	-0.478
G48A G63C U132A	-1.12
A6U A50G G117A	-1.14
A41U A84C	-1.99
C12A G48U C102A A118G	-4.24
A2U C56A A83G	-4.24
C13G A43U G58A	-4.45
G57A G107A	-6.98

Variant	polymerase ribozyme fitness (log ratio)
C12U C80U C102U	-2.35
C15U C20G G51A C98G U109A	-2.04
C102U G110C	-7.27
C12G A37G	0.106
C20A G35U A100U C114A C115U U130C	-6.44
C31G G69U A91G G120A U129A	-6.61
G47U U55G U116G	-3.9
A43G G58A C85U U112C	-1.68
C8A G36U U112A G127U	2.16
C8U C11U A41G G45C G48U C73U C124A G128A	-5.7
C62U U92C U116C A119G	0.218
G52U U106C A118G	-0.754
G39U C64U C101G A108G	-4.66
U55A G71C	-1.29
C3G C8G U32C C115G	-2.01
G17C A29G	-4.75
G52U C64U	-0.768
U14A G25U C34U G52U C56A A90G G93C C114G A121C G135A	-6.59
A29C A74U	-2.93
C3U C53U G117U A118G	-0.935
G45A G48U U54C C56G G69U U78G G93U C123G U130A	-2.55

Variant	polymerase ribozyme fitness (log ratio)
U9A G52A C56A	-1.03
A37C C53G G71C C82U C101A A119U	-2
C124A U131G	1.63
A41U C72A G113C	-2.13
C70G C123U	-0.882
U78C G93A	-0.707
C11G G60U U116G C124U	-3.49
A29U A46G G60U A91C	-2.59
C53A G71C C86U	-3.57
U32C G48U C101U A118G	-3.71
C34A G63U G120A	-4.37
G52C C73U G110U	-2.38
C34U U112C	-2.16
C56U U106G U112G A118C U133G	-0.872
C3G C4G G25U C28U C34U G71U G107U U112G C114A A121G	-6.59
A27G G45U G71U U96G G120U	-4.73
G69C C104A U106C U129A	-5.53
A29U C97A A121U	-4.33
G45U G47U C53A G57A G58U C86A	-2.17
C34A G117A	-3.53
G61U U116C	0.227

Variant	polymerase ribozyme fitness (log ratio)
G120A G122C	-0.571
G110U G120A	-2.47
G61C A75U A84C A95C	-1.21
A2C C86U	-1.99
U78C C115G U133A	-1.97
G77U G117A	-1.62
U14G C49U G93C C101A	-4.35
U9A U96A C124U	1.28
C53U C72A A91C C94G C101A	-4.4
C13G A46C U78C C86A	-4.39
U33A A90C	-6.85
C11A C13U G63C A83U	-1.91
C20A C49U	-3.79
A6C C8A A66U C85U	-1.77
G48U C56A C102U	-2.75
C97G G113C G122U	-5.4
A43U G47C G113U	-3.6
G93A U131C	-0.974
C88A G113A	-1.6
C56U C64A	-7.74
G61C U96A	-2.71
